Data: patent US20230295310A1 (ABCELLERA BIOLOGICS, published 2023)

B1: GOMP001_bsAb_029 (bispecific antibody, human IgG1, kappa, L234A L235A)
heavy 1: QVQLVQSGAEVKKPGASVKVSCKASGYTFTSHWMHWVRKAPGQGLEWIGEFNPSNGRTNYNEEFKSKATMTVDTSTNTAYMELSSLRSEDTAVYYCASRDYDYDGRYFDYWGQGTLVTVSSASTKGPSVFPLAPSSKSTSGGTAALGCLVADYFPEPVTVSWNSGALTSGVHTFPAVLQSSGLYSLSSVVTVPSSSLGTQTYICNVNHKPSNTKVDEKVEPKSCDKTHTCPPCPAPEAAGGPSVFLFPPKPKDTLMISRTPEVTCVVVDVSHEDPEVKFNWYVDGVEVHNAKTKPREEQYNSTYRVVSVLTVLHQDWLNGKEYKCKVSNKALPAPIEKTISKAKGQPREPQVYTLPPSREEMTDNQVSLTCLVKGFYPSDIAVEWESNGQPENNYKTTPPVLMSDGSFFLASKLTVDKSRWQQGNVFSCSVMHEALHNHYTQKSLSLSPG
light 1: RIQMTQSPSSLSASVGDRVTITCSASSSVTYMYWYQDKPGKAPKLLIYDTSNLASGVPSRFSGSGSGTDYTFTISSLQPEDIATYYCQQWSSHIFTFGQGTKVEIKRTVAAPSVFIFPPSDKQLKSGTARVVCLLNNFYPREAKVQWKVDNALQSGNSQESVTEQDSKDSTYSLSSTLTLSKADYEKHKVYACEVTHQGLSSPVTKSFNRGEC
heavy 2: QVQLVQSGAEVKKPGASVKVSCKASGYTVTGYYMHWVRYAPGQGLEWMGWINPNSGGTNFAQRFQGRVTMTRDTSISTFYMDLNRLRSDDTAVYYCARGGAPVSYWFFDLWGRGTLVTVSSASTKGPSVFPLAPSSKSTSGGTAALGCLVKDYFPEPVTVSWNSGALTSGVHTFPAVLQSSGLYSLSSVVTVPSSSLGTQTYICNVNHKPSNTKVDKKVEPKSCDKTHTCPPCPAPEAAGGPSVFLFPPKPKDTLMISRTPEVTCVVVDVSHEDPEVKFNWYVDGVEVHNAKTKPREEQYNSTYRVVSVLTVLHQDWLNGKEYKCKVSNKALPAPIEKTISKAKGQPRRPRVYTLPPSREEMTKNQVSLVCLVKGFYPSDIAVEWESNGQPENNYKTTPPVLDSDGSFFLYSVLTVDKSRWQQGNVFSCSVMHEALHNHYTQKSLSLSPG
light 2: DIQMTQSPSSLSASVGDRVTITCRASQSISRYLNWYQRKPGDAPKVLIYNTSSLKSGVPSRFSGSGSGTDFTLTISSLQPEDFGTFYCQQSHSTPFTFGPGTKVDIKRTVAAPSVFIFPPSDEQLKSGTASVVCLLNNFYPREAKVQWKVDNALQSGNSQESVTEQDSKDSTYSLSSTLTLSKADYEKHKVYACEVTHQGLSSPVTKSFNRGEC
B2: GOMP001_bsAb_030 (bispecific antibody, human IgG1, kappa, L234A L235A)
heavy 1: QVQLVQSGAEVKKPGASVKVSCKASGYTVTGYYMHWVRYAPGQGLEWMGWINPNSGGTNFAQRFQGRVTMTRDTSISTFYMDLNRLRSDDTAVYYCARGGAPVSYWFFDLWGRGTLVTVSSASTKGPSVFPLAPSSKSTSGGTAALGCLVKDYFPEPVTVSWNSGALTSGVHTFPAVLQSSGLYSLSSVVTVPSSSLGTQTYICNVNHKPSNTKVDKKVEPKSCDKTHTCPPCPAPEAAGGPSVFLFPPKPKDTLMISRTPEVTCVVVDVSHEDPEVKFNWYVDGVEVHNAKTKPREEQYNSTYRVVSVLTVLHQDWLNGKEYKCKVSNKALPAPIEKTISKAKGQPRRPRVYTLPPSREEMTKNQVSLVCLVKGFYPSDIAVEWESNGQPENNYKTTPPVLDSDGSFFLYSVLTVDKSRWQQGNVFSCSVMHEALHNHYTQKSLSLSPG
light 1: DIQMTQSPSSLSASVGDRVTITCRASQSISRYLNWYQRKPGDAPKVLIYNTSSLKSGVPSRFSGSGSGTDFTLTISSLQPEDFGTFYCQQSHSTPFTFGPGTKVDIKRTVAAPSVFIFPPSDEQLKSGTASVVCLLNNFYPREAKVQWKVDNALQSGNSQESVTEQDSKDSTYSLSSTLTLSKADYEKHKVYACEVTHQGLSSPVTKSFNRGEC
heavy 2: QVQLVQSGAEVKKPGASVKVSCKASGYTFTSHWMHWVRYAPGQGLEWIGEFNPSNGRTNYNEKFKSKATMTVDTSTNTAYMELSSLRSEDTAVYYCASRDYDYDGRYFDYWGRGTLVTVSSASTKGPSVFPLAPSSKSTSGGTAALGCLVKDYFPEPVTVSWNSGALTSGVHTFPAVLQSSGLYSLSSVVTVPSSSLGTQTYICNVNHKPSNTKVDKKVEPKSCDKTHTCPPCPAPEAAGGPSVFLFPPKPKDTLMISRTPEVTCVVVDVSHEDPEVKFNWYVDGVEVHNAKTKPREEQYNSTYRVVSVLTVLHQDWLNGKEYKCKVSNKALPAPIEKTISKAKGQPRRPRVYTLPPSREEMTKNQVSLVCLVKGFYPSDIAVEWESNGQPENNYKTTPPVLDSDGSFFLYSVLTVDKSRWQQGNVFSCSVMHEALHNHYTQKSLSLSPG
light 2: DIQMTQSPSSLSASVGDRVTITCSASSSVTYMYWYQRKPGDAPKLLIYDTSNLASGVPSRFSGSGSGTDYTFTISSLQPEDIATYYCQQWSSHIFTFGQGTKVEIKRTVAAPSVFIFPPSDEQLKSGTASVVCLLNNFYPREAKVQWKVDNALQSGNSQESVTEQDSKDSTYSLSSTLTLSKADYEKHKVYACEVTHQGLSSPVTKSFNRGEC
B3: GOMP001_bsAb_031 (bispecific antibody, human IgG1, kappa, L234A L235A)
heavy 1: QVQLVQSGAEVKKPGASVKVSCKASGYTFTSHWMHWVRKAPGQGLEWIGEFNPSNGRTNYNEEFKSKATMTVDTSTNTAYMELSSLRSEDTAVYYCASRDYDYDGRYFDYWGQGTLVTVSSASTKGPSVFPLAPSSKSTSGGTAALGCLVADYFPEPVTVSWNSGALTSGVHTFPAVLQSSGLYSLSSVVTVPSSSLGTQTYICNVNHKPSNTKVDEKVEPKSCDKTHTCPPCPAPEAAGGPSVFLFPPKPKDTLMISRTPEVTCVVVDVSHEDPEVKFNWYVDGVEVHNAKTKPREEQYNSTYRVVSVLTVLHQDWLNGKEYKCKVSNKALPAPIEKTISKAKGQPREPQVYTLPPSREEMTDNQVSLTCLVKGFYPSDIAVEWESNGQPENNYKTTPPVLMSDGSFFLASKLTVDKSRWQQGNVFSCSVMHEALHNHYTQKSLSLSPG
light 1: RIQMTQSPSSLSASVGDRVTITCSASSSVTYMYWYQDKPGKAPKLLIYDTSNLASGVPSRFSGSGSGTDYTFTISSLQPEDIATYYCQQWSSHIFTFGQGTKVEIKRTVAAPSVFIFPPSDKQLKSGTARVVCLLNNFYPREAKVQWKVDNALQSGNSQESVTEQDSKDSTYSLSSTLTLSKADYEKHKVYACEVTHQGLSSPVTKSFNRGEC
heavy 2: QGQLVESGGGVVQPGRSLRLSCAASGFTFRGFGMHWVRYAPGKGLEWVAIIYYDGKNKYYADRVKGRFTISRDNSKNTLYLQMNSLRAEDTAVYYCAKGGGYNWFDPWGRGTLVTVSSASTKGPSVFPLAPSSKSTSGGTAALGCLVKDYFPEPVTVSWNSGALTSGVHTFPAVLQSSGLYSLSSVVTVPSSSLGTQTYICNVNHKPSNTKVDKKVEPKSCDKTHTCPPCPAPEAAGGPSVFLFPPKPKDTLMISRTPEVTCVVVDVSHEDPEVKFNWYVDGVEVHNAKTKPREEQYNSTYRVVSVLTVLHQDWLNGKEYKCKVSNKALPAPIEKTISKAKGQPRRPRVYTLPPSREEMTKNQVSLVCLVKGFYPSDIAVEWESNGQPENNYKTTPPVLDSDGSFFLYSVLTVDKSRWQQGNVFSCSVMHEALHNHYTQKSLSLSPG
light 2: DIQMTQSPSSLSASVGDRVTITCRASQSISTYLNWYQRKPGDAPKLLIYSASSLQSGVPSRFSGSGSGTDFTLTISNLQPEDFAIYYCQRSYSPPFTFGPGTKLDIRRTVAAPSVFIFPPSDEQLKSGTASVVCLLNNFYPREAKVQWKVDNALQSGNSQESVTEQDSKDSTYSLSSTLTLSKADYEKHKVYACEVTHQGLSSPVTKSFNRGEC
B4: GOMP001_bsAb_032 (bispecific antibody, human IgG1, kappa, L234A L235A)
heavy 1: QGQLVESGGGVVQPGRSLRLSCAASGFTFRGFGMHWVRYAPGKGLEWVAIIYYDGKNKYYADRVKGRFTISRDNSKNTLYLQMNSLRAEDTAVYYCAKGGGYNWFDPWGRGTLVTVSSASTKGPSVFPLAPSSKSTSGGTAALGCLVKDYFPEPVTVSWNSGALTSGVHTFPAVLQSSGLYSLSSVVTVPSSSLGTQTYICNVNHKPSNTKVDKKVEPKSCDKTHTCPPCPAPEAAGGPSVFLFPPKPKDTLMISRTPEVTCVVVDVSHEDPEVKFNWYVDGVEVHNAKTKPREEQYNSTYRVVSVLTVLHQDWLNGKEYKCKVSNKALPAPIEKTISKAKGQPRRPRVYTLPPSREEMTKNQVSLVCLVKGFYPSDIAVEWESNGQPENNYKTTPPVLDSDGSFFLYSVLTVDKSRWQQGNVFSCSVMHEALHNHYTQKSLSLSPG
light 1: DIQMTQSPSSLSASVGDRVTITCRASQSISTYLNWYQRKPGDAPKLLIYSASSLQSGVPSRFSGSGSGTDFTLTISNLQPEDFAIYYCQRSYSPPFTFGPGTKLDIRRTVAAPSVFIFPPSDEQLKSGTASVVCLLNNFYPREAKVQWKVDNALQSGNSQESVTEQDSKDSTYSLSSTLTLSKADYEKHKVYACEVTHQGLSSPVTKSFNRGEC
heavy 2: QVQLVQSGAEVKKPGASVKVSCKASGYTFTSHWMHWVRYAPGQGLEWIGEFNPSNGRTNYNEKFKSKATMTVDTSTNTAYMELSSLRSEDTAVYYCASRDYDYDGRYFDYWGRGTLVTVSSASTKGPSVFPLAPSSKSTSGGTAALGCLVKDYFPEPVTVSWNSGALTSGVHTFPAVLQSSGLYSLSSVVTVPSSSLGTQTYICNVNHKPSNTKVDKKVEPKSCDKTHTCPPCPAPEAAGGPSVFLFPPKPKDTLMISRTPEVTCVVVDVSHEDPEVKFNWYVDGVEVHNAKTKPREEQYNSTYRVVSVLTVLHQDWLNGKEYKCKVSNKALPAPIEKTISKAKGQPRRPRVYTLPPSREEMTKNQVSLVCLVKGFYPSDIAVEWESNGQPENNYKTTPPVLDSDGSFFLYSVLTVDKSRWQQGNVFSCSVMHEALHNHYTQKSLSLSPG
light 2: DIQMTQSPSSLSASVGDRVTITCSASSSVTYMYWYQRKPGDAPKLLIYDTSNLASGVPSRFSGSGSGTDYTFTISSLQPEDIATYYCQQWSSHIFTFGQGTKVEIKRTVAAPSVFIFPPSDEQLKSGTASVVCLLNNFYPREAKVQWKVDNALQSGNSQESVTEQDSKDSTYSLSSTLTLSKADYEKHKVYACEVTHQGLSSPVTKSFNRGEC

Target: human EGFR, C-terminal eGFP-tagged, on CHO-K1 cells (human, UniProt P00533 25-1210)
Test: cell-based or functional assay

Binder | EC50 CHO-K1 EGFR Low (nM); T cell activation bioassay, luciferase [nM] | EC50 CHO-K1 EGFR Med (nM); T cell activation bioassay, luciferase [nM]
B1 | 0.271 | 0.0226
B2 | 0.0644 | 0.00272
B3 | 1.66 | 0.446
B4 | 0.122 | 0.0482
